What all share (assay): EMSA; 5 mM Mg2+
Holding throughout (settings): protein: recombinant; tags: His (Ni-NTA purified; pMCSG7); chain copies: 2; label: 5' 6-FAM on strand 1; blunt
A general note: Mobility shift assays separate free from complexed probe on a gel.

Data set [1] addresses T1, Ku D247A (Mycobacterium tuberculosis, UniProt P9WKD9 1-273, D247A).
T1 sequence: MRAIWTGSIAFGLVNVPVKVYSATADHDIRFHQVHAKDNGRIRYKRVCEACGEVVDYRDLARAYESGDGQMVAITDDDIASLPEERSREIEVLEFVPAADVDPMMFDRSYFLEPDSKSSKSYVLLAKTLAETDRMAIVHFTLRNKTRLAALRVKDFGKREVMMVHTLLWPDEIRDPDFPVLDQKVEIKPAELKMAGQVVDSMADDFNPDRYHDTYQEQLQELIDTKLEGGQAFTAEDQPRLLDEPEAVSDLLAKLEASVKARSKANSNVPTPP

The target of data set [2] is T2, Ku R262A (Mycobacterium tuberculosis, UniProt P9WKD9 1-273, R262A).
T2 sequence: T1 sequence with A247D, R262A

Data set [3] concerns the target T3, Ku D250A (Mycobacterium tuberculosis, UniProt P9WKD9 1-273, D250A).
T3 sequence: T1 sequence with A247D, D250A

Data set [4] concerns the target T4, Ku S258A (Mycobacterium tuberculosis, UniProt P9WKD9 1-273, S258A).
T4 sequence: T1 sequence with A247D, S258A

The target in data set [5] is T5, Ku L251A (Mycobacterium tuberculosis, UniProt P9WKD9 1-273, L251A).
T5 sequence: T1 sequence with A247D, L251A

Positions count from the first letter of the chain named.

B1: 40 bp dsDNA (dsDNA)
DNA 1: CAGGGTAAGTGTGGAGGTGTAGGGAAGGGAATGTTGTCTG
DNA 2: CAGACAACATTCCCTTCCCTACACCTCCACACTTACCCTG
Broadly, the Kd is a measure of binding affinity in units of concentration. As for B1, the Kd in data set [1] amounted to 160 ± 10 nM; in data set [2], 140 ± 10 nM; in data set [3], 140 ± 10 nM; in data set [4], 1340 ± 290 nM; in data set [5], 1300 ± 190 nM.

The record behind these values is PMC9638933.
